Experimental data: article PMC5645493, “LAR-RPTP Clustering Is Modulated by Competitive Binding between Synaptic Adhesion Partners and Heparan Sulfate” (Frontiers in Molecular Neuroscience, 2017)

B1: human IL1RAPL1 Ig1-3 (domain or fragment)
chain: SADGCTDWSIDIKKYQVLVGEPVRIKCALFYGYIRTNYSLAQSAGLSLMWYKSSGPGDFEEPIAFDGSRMSKEEDSIWFRPTLLQDSGLYACVIRNSTYCMKVSISLTVGENDTGLCYNSKMKYFEKAELSKSKEISCRDIEDFLLPTREPEILWYKECRTKTWRPSIVFKRDTLLIREVREDDIGNYTCELKYGGFVVRRTTELTVTAPLTDKPPKLLYPMESKLTIQETQLGDSANLTCRAFFGYSGDVSPLIYWMKGEKFIEDLDENRVWESDIRILKEHLGEQEVSISLIVDSVEEGDLGNYSCYVENGNGRRHASVLL
modifications: glycans (NAG2-BMA-MAN) attached to N138
notes: IL-1 receptor accessory protein-like 1 (IL1RAPL1), human, Ig-like domains 1-3 of the extracellular part; In the functional row the Fc-fused form (Fc not cleaved) was used; also called IL-1 receptor accessory protein-like 1; IL1RAPL1 Ig1-3-Fc / IL1RAPL1-Fc (Fc kept, in the clustering assays only); source: High Five insect cells (baculovirus), secreted, purified (IgG Sepharose or protein A …)
B2: human PTPδ Ig1-3(+/+) (domain or fragment)
chain: ETPPRFTRTPVDQTGVSGGVASFICQATGDPRPKIVWNKKGKKVSNQRFEVIEFDDGSGSVLRIQPLRTPRDEAIYECVASNNVGEISVSTRLTVLREDQIPRGFPTIDMGPQLKVVERTRTATMLCAASGNPDPEITWFKDFLPVDTSNNNGRIKQLRSESIGGTPIRGALQIEQSEESDQGKYECVATNSAGTRYSAPANLYVRELREVRRVPPRFSIPPTNHEIMPGGSVNITCVAVGSPMPYVKWMLGAEDLTPEDDMPIGRNVLELNDVRQSANYTCVAMSTLGVIEAIAQIT
notes: receptor-type tyrosine-protein phosphatase delta (PTPδ), human, Ig-like domains 1-3, splice form with the MeA and MeB inserts (+/+); In the functional rows the Fc-fused form (Fc not cleaved) was used; also called PTPδ Ig1-3 MeA+MeB+; LAR-RPTP (PTPδ); source: High Five insect cells (baculovirus), secreted, purified (IgG Sepharose or protein A Sepharose, thrombin, Superdex 200)

Tests used:
[1] = target: the molecule itself; test: crystal structure; PTPδ Ig1-3(+/+) mixed with IL1RAPL1 Ig1-3 at 1:1, complex isolated by gel filtration; sitting drop, 296 K, 100 mM Tris-HCl pH 7.5, 200 mM zinc acetate, 10% PEG8K; space group P3_(2)12; 3.08 Å
human IL1RAPL1 Ig1-3 = target: B1; test: as above; details: both partners purified

B1: binds [1].

B2: binds [1]; binds (human IL1RAPL1 Ig1-3).
